One molecule from publication PMC4923858 can be followed below.

In this test the target is T1, TβRII-GFP, P37173.
T1 chain: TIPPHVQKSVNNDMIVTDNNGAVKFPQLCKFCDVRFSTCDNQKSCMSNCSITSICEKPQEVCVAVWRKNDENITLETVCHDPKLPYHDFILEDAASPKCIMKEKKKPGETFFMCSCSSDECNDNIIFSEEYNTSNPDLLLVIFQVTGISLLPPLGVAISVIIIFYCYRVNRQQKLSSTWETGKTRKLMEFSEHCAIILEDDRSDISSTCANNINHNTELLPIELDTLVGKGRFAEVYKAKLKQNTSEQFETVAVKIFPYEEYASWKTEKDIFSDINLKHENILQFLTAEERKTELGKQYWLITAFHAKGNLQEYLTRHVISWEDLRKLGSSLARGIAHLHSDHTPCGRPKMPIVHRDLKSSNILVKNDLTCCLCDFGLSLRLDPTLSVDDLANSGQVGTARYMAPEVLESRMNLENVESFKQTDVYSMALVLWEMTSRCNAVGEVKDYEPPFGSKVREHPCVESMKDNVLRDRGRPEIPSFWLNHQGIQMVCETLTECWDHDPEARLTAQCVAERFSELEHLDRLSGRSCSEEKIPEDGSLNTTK
In words: single-molecule photobleaching step counting (TIRFM); TβRII-GFP on the membrane of fixed HeLa cells 4 h after transfection; after TGF-β1 10 ng/mL for 15 min at 37 °C; room temperature. The note with it: remark: other sources report otherwise.

B1: TβRII-GFP, P37173 23-567 (receptor)
chain: T1 chain
Turning to B1, the percent of spots bleaching in one step (monomers), after TGF-β1 was determined as 67.7%; the percent of spots bleaching in three steps, after TGF-β1 is 0.6%; the percent of spots bleaching in two steps (dimers), after TGF-β1 is 31.6%.
